Experimental data from the supplement of paper PMC7125110.
± gives the standard error. Variants at the floor of the assay were thinned out.

B1: glmS ribozyme (parent)
chain: AUAAAAGCGCCAGAACUACAGAAAUGUAGUUGACGAGGAGGAGGUUUAUCGAAUUUUCGGCGGAUGCCUCCAAA

Assays:
Details in all cases: with glucosamine-6-phosphate
glucosamine-6-phosphate [1] = variants of: B1; experiment: self-cleavage kobs at 40 uM GlcN6P; higher = faster cleavage; RNA array
Outline: (§1)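 Barcoded ribozyme variants, transcribed in situ by E. coli RNA polymerase on sequenced MiSeq chips, were followed via a hybridised Cy3 probe at 37 °C. Glucosamine-6-phosphate ranged from 40 μM to 10 mM in HEPES/KCl/Mg(OAc)2 buffer. kobs came from decay fits to per-tile medians, and kcat and KM from weighted Michaelis–Menten fits.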

glucosamine-6-phosphate [2] = variants of: B1; experiment: self-cleavage kobs at 10000 uM GlcN6P; higher = faster cleavage; RNA array
Outline: as §1

glucosamine-6-phosphate [3] = variants of: B1; experiment: self-cleavage kobs at 640 uM GlcN6P; higher = faster cleavage; RNA array
Outline: as §1

glucosamine-6-phosphate [4] = variants of: B1; experiment: self-cleavage kobs at 2500 uM GlcN6P; higher = faster cleavage; RNA array
Outline: as §1

glucosamine-6-phosphate [5] = variants of: B1; experiment: self-cleavage kobs at 160 uM GlcN6P; higher = faster cleavage; RNA array
Outline: as §1

Row | Variant | self-cleavage kobs at 40 uM GlcN6P (glucosamine-6-phosphate [1]) [s⁻¹] | self-cleavage kobs at 10000 uM GlcN6P (glucosamine-6-phosphate [2]) [s⁻¹] | self-cleavage kobs at 640 uM GlcN6P (glucosamine-6-phosphate [3]) [s⁻¹] | self-cleavage kobs at 2500 uM GlcN6P (glucosamine-6-phosphate [4]) [s⁻¹] | self-cleavage kobs at 160 uM GlcN6P (glucosamine-6-phosphate [5]) [s⁻¹]
1 | G38A G60U U69G | < 1e-05 | < 1e-05 | – | – | –
2 | C8U A15U U30G G35C G41U | < 1e-05 | – | < 1e-05 | < 1e-05 | –
3 | C8U G40U C70A | < 1e-05 | < 1e-05 | – | – | –
4 | U30G G32A G35C A42C | < 1e-05 | – | – | – | –
5 | A53U C71U | 0.000617 ± 6e-05 | 0.0301 ± 0.0058 | 0.00728 ± 0.0012 | 0.0165 ± 0.0031 | 0.00115 ± 0.0002
6 | C11G G37C G40U G51A U65C | < 1e-05 | < 1e-05 | – | – | –
7 | C16U C34A | < 1e-05 | – | – | – | –
8 | A6G C10G U31G U55A | < 1e-05 | – | – | – | –
9 | A6G U31C U55G | < 1e-05 | 5.16e-05 ± 1.9e-05 | – | 4.23e-05 ± 1.7e-05 | –
10 | A36G A52U | < 1e-05 | < 1e-05 | < 1e-05 | < 1e-05 | < 1e-05
11 | C10U A14G A52U G60U | < 1e-05 | < 1e-05 | – | < 1e-05 | –
12 | C16U U69C | 0.000407 ± 8.8e-05 | 0.0036 ± 0.00088 | 0.000778 ± 0.00013 | 0.000683 ± 0.00014 | 0.000359 ± 9e-05
13 | G37U G41A | < 1e-05 | < 1e-05 | < 1e-05 | – | < 1e-05
14 | U47G A48U A52C | < 1e-05 | < 1e-05 | – | – | –
15 | G9A U56G | < 1e-05 | – | – | – | < 1e-05
16 | C11G A48C | < 1e-05 | < 1e-05 | – | – | –
17 | G29A U49C U69A | < 1e-05 | < 1e-05 | – | – | –
18 | G13A G32C G43U A48G U69A | < 1e-05 | – | – | – | –
19 | C61A G66C | < 1e-05 | < 1e-05 | – | < 1e-05 | –
20 | A14G C34A G44U C68U | < 1e-05 | – | – | – | < 1e-05
21 | A42G C68U | 0.000563 ± 7.3e-05 | 0.0168 ± 0.0034 | 0.00237 ± 0.00041 | – | 0.000735 ± 0.00016
22 | U30G A48G C71U | < 1e-05 | – | < 1e-05 | – | –
23 | A48U U49C | < 1e-05 | < 1e-05 | – | < 1e-05 | < 1e-05
24 | A12U G29U G35C U49A C70A C71G | < 1e-05 | – | – | – | < 1e-05

Row | Variant | self-cleavage kobs at 40 uM GlcN6P (glucosamine-6-phosphate [1]) [s⁻¹] | self-cleavage kobs at 10000 uM GlcN6P (glucosamine-6-phosphate [2]) [s⁻¹] | self-cleavage kobs at 640 uM GlcN6P (glucosamine-6-phosphate [3]) [s⁻¹] | self-cleavage kobs at 2500 uM GlcN6P (glucosamine-6-phosphate [4]) [s⁻¹] | self-cleavage kobs at 160 uM GlcN6P (glucosamine-6-phosphate [5]) [s⁻¹]
25 | U31C G51A | < 1e-05 | < 1e-05 | < 1e-05 | < 1e-05 | –
26 | G35C G43A | < 1e-05 | – | – | < 1e-05 | < 1e-05
27 | C10G G43A G62U | < 1e-05 | – | < 1e-05 | – | –
28 | A33G A39U | < 1e-05 | < 1e-05 | – | < 1e-05 | –
29 | A48U C58U | < 1e-05 | < 1e-05 | < 1e-05 | < 1e-05 | < 1e-05
30 | C10G G37C U47A U57A G66C C70G | < 1e-05 | < 1e-05 | – | – | –
31 | A33U C61U C70U | < 1e-05 | – | – | < 1e-05 | –
32 | U45A U54G | 0.00129 ± 0.00023 | 0.0501 ± 0.011 | 0.0132 ± 0.0028 | 0.0113 ± 0.0021 | 0.00383 ± 0.00079
33 | C11G C58U | < 1e-05 | < 1e-05 | – | – | < 1e-05
34 | G32C C34U A64G C68G | < 1e-05 | < 1e-05 | – | – | –
35 | C10U A52U | < 1e-05 | < 1e-05 | < 1e-05 | < 1e-05 | < 1e-05
36 | A36U U45A C71G | < 1e-05 | – | – | – | –
37 | A36C G62C | < 1e-05 | < 1e-05 | – | – | < 1e-05
38 | G7A G9U A48G | < 1e-05 | – | – | – | –
39 | A39C G51C C71G | < 1e-05 | < 1e-05 | – | – | –
40 | C11U A36C C61U | < 1e-05 | – | < 1e-05 | – | –
41 | A15C U31C G51C U56G C70G | < 1e-05 | < 1e-05 | – | – | –
42 | U47A C50A U54A | < 1e-05 | – | – | – | –
43 | G32C U49G | < 1e-05 | – | < 1e-05 | – | < 1e-05
44 | U57G G59C | < 1e-05 | < 1e-05 | < 1e-05 | – | –
45 | G40C U54C | 8.26e-05 ± 2.6e-05 | 0.00203 ± 0.00044 | – | 0.00131 ± 0.00028 | –
46 | C16U G29C | 0.000447 ± 6.3e-05 | 0.0179 ± 0.0033 | 0.00244 ± 0.00032 | 0.00422 ± 0.00072 | 0.000622 ± 9.5e-05
47 | A48U G63C | < 1e-05 | < 1e-05 | < 1e-05 | < 1e-05 | < 1e-05
